Measurements from patent publication US20100021421A1 (MCGILL UNIVERSITY, published 2010).

Assays:
[1] = biological target: T1, recombinant mouse IL-15Ralpha-Fc (mouse, UniProt Q60819 33-205); experiment: SPR (BIACORE 3000), rIL-15Rα-Fc amine-coupled to CM5 chip, analyte injected, 1:1 interaction model; purified GIFT15 as analyte
T1 construct: Bought from R&D Systems and amine-coupled to a CM5 chip (1300 RU); also called rmIL-15Rα-Fc; rIL-15Rα-Fc; not shown: Fc part of the commercial fusion
T1 sequence (looked up): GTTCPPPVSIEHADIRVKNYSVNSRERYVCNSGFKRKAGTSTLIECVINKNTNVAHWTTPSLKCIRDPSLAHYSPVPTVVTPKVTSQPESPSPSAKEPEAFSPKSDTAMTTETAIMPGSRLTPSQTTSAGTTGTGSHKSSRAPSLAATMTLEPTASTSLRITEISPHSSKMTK
Procedure: mGIFT15 was purified by immunoaffinity column packed using CNBr-sepharose (Amersham, N.J., USA) according to manufacturer's instructions. The binding interaction between mGIFT15 and rmIL-15Rα-Fc was examined in real-time using a BIACORE 3000 with research-grade CM5 sensor chips (Biacore AB, Uppsala, Sweden). Based on the manufacturer's recommendations, active CM5 surfaces were prepared by immobilizing rIL-15Rα-Fc (10 μg/mL in 10 mM sodium acetate pH 5.0) using the Amine Coupling Kit (Biacore AB) and HBS-M running buffer. Corresponding reference surfaces were prepared in the similar manner in the absence of any ligand. As a positive control, rIL-15 was injected at 50 μL/min (180 sec association+180 sec dissociation) over the reference and amine-coupled rIL-15Rα-Fc surfaces (1300 RU). Regeneration was achieved using two 30 second pulses of HBS-M containing 0.5 M NaCl, 50 mM EDTA, and 0.05% (v/v) TritonX-100 or Empigen. For the test sample, purified mGIFT15 was injected over the same sensor chip surfaces and regenerated in an identical manner. All binding data presented were “double-referenced” and analyzed according to a 1:1 interaction model using BIAevaluation 4.1 (Biacore AB).

[2] = biological target: T2, recombinant mouse IL-15Ralpha-Fc (mouse), Q60819; experiment: SPR (BIACORE 3000), rIL-15Rα-Fc amine-coupled to CM5 chip, analyte injected, 1:1 interaction model; rIL-15 as analyte; settings: remark: other sources report otherwise
T2 chain: T1 sequence (looked up)

B1: mouse GM-CSF and IL-15 fusion protein (fusokine) mGIFT15 (ligand)
chain: APTRSPITVTRPWKHVEAIKEALNLLDDMPVTLNEEVEVVSNEFSFKKLTCVQTRLKIFEQGLRGNFTKLKGALNMTASYYQTYCPPTPETDCETQVTTYADFIDSLKTFLTDDPGRRAIMKILKPYMRNTSISCYLCFLLNSHFLTEAGIHVFILGCVSVGLPKTEANWIDVRYDLEKIESLIQSIHIDTTLYTDSDFHPSCKVTAMNCFLLELQVILHEYSNMTLNETVRNVLYLANSTLSSNKNVAESGCKECEELEEKTFTEFLQSFIRIVQMFINTS
notes: also called purified GIFT15; purified mGIFT15
Kd [1]: 1.4 nM

B2: recombinant mouse IL-15, P48346 49-162 (ligand, UniProt P48346 49-162, looked up)
chain: NWIDVRYDLEKIESLIQSIHIDTTLYTDSDFHPSCKVTAMNCFLLELQVILHEYSNMTLNETVRNVLYLANSTLSSNKNVAESGCKECEELEEKTFTEFLQSFIRIVQMFINTS
Kd [2]: 3 nM
